Measurements reported in publication PMC7116857.

Target: wild-type alpha-synuclein (UniProt P37840)
Assay: microfluidic free-flow electrophoresis

oligomer concentration (aptamer-bound, 1:1 assumed): < 80 nM
Substance: wild-type alpha-synuclein (from UniProt P37840 1-140) (natural protein)
